{"source": "patent US20240158515A1", "about": "(Regeneron, published 2024)", "binders": {"B1": {"name": "H4H30063P (antibody, human IgG4 S228P, kappa, V domains shown)", "VH": "QVQLQESGPGLVKPSETLSLTCTVSGDSINSYFWSWIRQLPGKELEWIGHIYSSGSTRYNPSLQSRVTISIDTSKNQFSLKLSSVTAADTAVYYCARGASAVDYWGQGTLVTVSS", "VL": "EIVLTQSPGTLSLSPGERATLSCRTSQSISSGYLAWYQQKPGQAPRLLIYGASRRATGIPDRFSGSGSGTDFTLTISRLEPEDFVVYYCQQYGSSPYTFGQGTKLEIKR", "notes": "HCVR 2, LCVR 10; also called REGN15684"}}, "key": {"[1]": {"biological_target": "full length human FGFR3b S249C/V557L on BaF3 cells (human, UniProt P22607 23-808)", "assay": "cell-based or functional assay"}, "[2]": {"biological_target": "full length human FGFR3b S249C/V557M on BaF3 cells (human, UniProt P22607 23-808)", "assay": "cell-based or functional assay"}, "[3]": {"biological_target": "T1, full length human FGFR3b S249C on BaF3 cells (BAF3/FGFR3b_S249C, ACL11986) (human, UniProt P22607 23-808)", "assay": "cell-based or functional assay"}, "[4]": {"biological_target": "T1, full length human FGFR3b S249C on BaF3 …", "assay": "cell-based or functional assay", "remark": "listed apart in the source"}, "[5]": {"biological_target": "T2, human FGFR3b expressed with a C-terminal murine Fc tag (hFGFR3b.mFc) (human)", "T2 construct": "called dimeric; also called REGN3153; dimeric human FGFR3b", "T2 chain": "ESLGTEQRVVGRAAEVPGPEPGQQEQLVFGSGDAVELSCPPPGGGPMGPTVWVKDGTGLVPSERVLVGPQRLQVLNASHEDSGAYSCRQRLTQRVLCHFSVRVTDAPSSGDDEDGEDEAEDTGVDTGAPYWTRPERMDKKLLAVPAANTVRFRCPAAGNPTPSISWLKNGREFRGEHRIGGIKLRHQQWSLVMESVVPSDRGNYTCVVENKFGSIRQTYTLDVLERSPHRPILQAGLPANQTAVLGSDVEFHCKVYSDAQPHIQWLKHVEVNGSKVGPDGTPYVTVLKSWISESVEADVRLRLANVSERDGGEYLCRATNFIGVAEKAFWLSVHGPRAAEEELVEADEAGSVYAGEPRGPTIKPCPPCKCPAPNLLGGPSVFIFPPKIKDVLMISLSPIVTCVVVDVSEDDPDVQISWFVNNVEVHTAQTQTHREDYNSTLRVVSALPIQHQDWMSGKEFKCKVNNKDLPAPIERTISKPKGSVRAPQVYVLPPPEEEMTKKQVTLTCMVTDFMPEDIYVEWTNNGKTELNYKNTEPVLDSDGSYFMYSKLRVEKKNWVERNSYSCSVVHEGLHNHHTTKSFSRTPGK", "assay": "competition ELISA: 4 nM hFGFR3b-mFc binding to plate-coated hFGF acidic"}}}
{"binder": "B1", "values": [{"measurement": "IC50, growth of BaF3 cells expressing FGFR3 S249C/V557L (CellTiter-Glo)", "setting": "[1]", "value": 4.3, "unit": "nM"}, {"measurement": "IC50, growth of BaF3 cells expressing FGFR3 S249C/V557M (CellTiter-Glo)", "setting": "[2]", "value": 3.9, "unit": "nM"}, {"measurement": "IC50, growth of BaF3 cells expressing FGFR3 S249C (CellTiter-Glo)", "setting": "[3]", "value": 1.36, "unit": "nM"}, {"measurement": "IC50 [M], BaF3 proliferation (CellTiter-Glo) with 1 nM FGF1 + 5 ug/ml heparin", "setting": "[4]", "value": "5.08e-10", "unit": "M"}, {"measurement": "Max Blocking (%), BaF3 proliferation (CellTiter-Glo) with 1 nM FGF1 + 5 ug/ml heparin", "setting": "[4]", "value": 93.4, "unit": "%"}, {"measurement": "% Blocking at 200 nM mAb", "setting": "[5]", "value": 95, "unit": "%"}, {"measurement": "IC50", "setting": "[5]", "value": 2, "unit": "nM"}]}
